Source: patent US20110262436A1, “TREATMENT METHOD” (Genentech, Inc., priority 2008, published 2011)
“Also recorded” adds a separate entry of the source.

How the values were obtained:
[1] = PK study, single IV bolus dose in nude mice; type: in vivo
Procedure: (§1) PK studies. PK studies were conducted in mice, rats, and cynomolgus monkeys.
The expected serum concentration at the time of serum sample collection was estimated based on PK parameters determined in the PK study in non-tumor bearing mice (described above). […] These PK parameters were used to estimate serum concentration by WinNonlin Enterprise Version 5.0.1 (Pharsight Corp., Mountain View, Calif.) for doses tested in IV infusion study.
(§2) Pharmacokinetic Assays for MetMAb in Mouse Serum and Rat Serum. […] A direct ELISA assay was developed for quantification of MetMAb in mouse serum and Sprague-Dawley rat serum. Plates were coated with human c-Met-Fc fusion protein to which samples, standards, and dosing solutions were added. Goat anti-human F(Ab′)2 horseradish peroxidase (HRP) was used for detection. Tetrapethyl benzidine (TMB) peroxidase substrate was added for signal development. The substrate reaction was stopped with phosphoric acid. The plates were read at an absorbance of 450 nm. […] The lower limit of quantitation in the assay was 0.47 ng/mL and the upper limit of quantification was 30 ng/mL. The minimum dilution for nude mouse serum samples was 1/10, resulting in a minimum quantifiable concentration of 4.7 ng/mL, with an indefinite upper limit. The minimum dilution for rat serum samples was 1/50, resulting in a minimum quantifiable concentration of 23.5 ng/mL, with an indefinite upper limit.
(§3) Mouse, Rat, and Cynomolgus Monkey PK data analysis. […] PK parameters were estimated using WinNonlin Enterprise Version 5.0.1 (Pharsight Corp., Mountain View, Calif.). The nominal dose administered for each group was used for modeling. Since a single concentration-time profile for mice was determined for each group, one estimate of each PK parameter was obtained and is reported, along with the standard error (SE) of the fit of each PK parameter. For rats and monkeys, PK parameters are reported as mean (+/−SD).
(§4) For IV administrations, a two-compartment elimination model with IV bolus input and first-order elimination was used to describe the observed data (WinNonlin Model 7). Concentrations were weighted using iterative reweighting (1/ŷ^2) and the Nelder-Mead minimization algorithm. The following equation was used to calculate concentration over time in Model 7: […]

[2] = PK study, single IV bolus dose in Sprague-Dawley rats; type: in vivo
Procedure: as §1, §2, §3, §4

c-met = c-met (Rattus norvegicus, UniProt P97523); assay: Binding to c-met in rats
Chain of c-met (P97523 25-1382): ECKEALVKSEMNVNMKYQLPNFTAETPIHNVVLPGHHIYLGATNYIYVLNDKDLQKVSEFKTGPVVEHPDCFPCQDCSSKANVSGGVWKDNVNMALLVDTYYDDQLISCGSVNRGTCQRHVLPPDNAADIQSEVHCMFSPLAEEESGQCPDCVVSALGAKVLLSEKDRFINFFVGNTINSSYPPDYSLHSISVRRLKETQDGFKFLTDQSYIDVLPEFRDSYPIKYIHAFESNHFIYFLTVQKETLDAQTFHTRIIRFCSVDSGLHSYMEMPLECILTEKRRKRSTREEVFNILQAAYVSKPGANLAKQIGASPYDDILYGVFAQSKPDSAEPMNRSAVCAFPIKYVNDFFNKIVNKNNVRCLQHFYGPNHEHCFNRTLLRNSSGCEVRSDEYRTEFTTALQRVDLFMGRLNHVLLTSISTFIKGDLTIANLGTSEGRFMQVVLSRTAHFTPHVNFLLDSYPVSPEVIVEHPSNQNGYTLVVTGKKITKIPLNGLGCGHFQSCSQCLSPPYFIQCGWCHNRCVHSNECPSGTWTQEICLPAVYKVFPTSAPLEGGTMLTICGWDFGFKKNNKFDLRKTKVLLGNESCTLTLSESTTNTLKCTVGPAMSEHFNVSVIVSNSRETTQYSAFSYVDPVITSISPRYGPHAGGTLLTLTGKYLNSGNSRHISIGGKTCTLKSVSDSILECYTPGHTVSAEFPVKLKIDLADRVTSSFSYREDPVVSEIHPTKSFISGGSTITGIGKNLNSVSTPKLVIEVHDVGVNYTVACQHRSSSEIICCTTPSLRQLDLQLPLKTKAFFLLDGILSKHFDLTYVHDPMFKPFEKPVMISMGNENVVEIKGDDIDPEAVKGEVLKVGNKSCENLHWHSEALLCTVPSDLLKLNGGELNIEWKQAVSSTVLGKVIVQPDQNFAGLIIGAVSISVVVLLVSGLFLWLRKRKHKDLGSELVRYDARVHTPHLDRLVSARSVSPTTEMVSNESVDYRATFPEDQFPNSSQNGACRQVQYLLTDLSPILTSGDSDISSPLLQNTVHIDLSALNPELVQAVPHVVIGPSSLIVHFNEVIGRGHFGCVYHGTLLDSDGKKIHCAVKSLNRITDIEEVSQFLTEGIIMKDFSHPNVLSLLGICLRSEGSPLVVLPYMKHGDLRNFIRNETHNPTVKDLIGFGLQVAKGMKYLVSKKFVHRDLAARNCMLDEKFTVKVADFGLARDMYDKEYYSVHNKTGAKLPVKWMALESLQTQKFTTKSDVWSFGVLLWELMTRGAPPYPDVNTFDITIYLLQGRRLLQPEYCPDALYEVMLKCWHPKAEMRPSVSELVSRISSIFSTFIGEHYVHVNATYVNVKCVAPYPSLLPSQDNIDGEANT

[3] = Repeat-dose safety study in cynomolgus monkeys; type: in vivo; details: GLP toxicology study
Text: Repeat-dose safety study.

[4] = Safety factor calculation (cynomolgus monkey vs proposed human starting dose); parameters: species or system cynomolgus monkeys; details: Planned Phase Ia starting dose 1 mg/kg
Procedure: Safety Factor Calculation. Safety factor was calculated for Dose, AUC, Cmax as the ratio at the highest non-severely toxic dose (HNSTD) observed in the single or repeat-dose safety study to the proposed phase I starting dose. The equations are:
Safety factor (SF)Dose=DoseCyno/DoseHuman
SFCmax=(Cmax-Cyno)/(Cmax-Human)
For body surface area calculation: The body weight to surface area index is 12 kg/m^2 for cynomolgus monkeys and 37.5 kg/m^2 for humans.

[5] = Phase I dose-escalation study: safety and tolerability; type: in vivo, humans
Procedure: Study design. There are two stages to this study, a dose-escalation stage and an expansion stage.
Study treatment. […] Dose levels tested in Phase I were: 1 mg/kg, 4 mg/kg, 10 mg/kg, 20 mg/kg, and 30 mg/kg.

HGF = assay: Phase I study: serum HGF levels by ELISA; type: in vivo, humans
Procedure: Pre- and post-dose serum is collected for evaluation of pharmacodynamic (PD) biomarkers that could be affected by inhibition of Met signaling. In addition, archival tissue is obtained for exploratory diagnostic assessments.
Serum HGF levels were determined using ELISA. […] For patient 12007, HGF expression increased to baseline levels in subsequent cycles. For patient 11009, HGF levels decreased by 70% post drug treatment and remained low for the duration of the study.

[6] = Athymic nude mouse, single IV dose
[7] = non-tumor-bearing mice, two-compartmental model

Substance: MetMAb: recombinant, humanized, monovalent (one-armed) monoclonal antibody directed against human c-met
- Terminal Half-Life [1, 6]: 113 h
- V1 [1, 6]: 0.0488 L/kg
- Vss [1, 6]: 0.14 L/kg
- Serum disposition ([1]; non-tumor-bearing mice): biphasic and exhibited dose-proportionality
- CLd (inter-compartmental clearance) [1, 7]: 7.92 mL/h/kg
- V2 (apparent peripheral volume of distribution) [1, 7]: 0.0907 L/kg
- Terminal Half-Life ([2]; Sprague Dawley rat): 124 h
- V1 ([2]; Sprague Dawley rat): 0.0446 L/kg
- Vss ([2]; Sprague Dawley rat): 0.107 L/kg
- CL ([2]; Sprague Dawley rat (n = 6)): 0.783 mL/h/kg
- Binding to c-met (c-met): does not bind to c-met
- Highest non-severely toxic dose [3]: 100 mg/kg
- Multiple Dose Safety Factor: Body Surface Area [4]: 105
- Multiple Dose Safety Factor: Total Dose [4]: 325
- Single Dose Safety Factor: Body Surface Area [4]: 32
- Single Dose Safety Factor: Single Dose [4]: 100
- Abdominal pain, drug-related, Grade 1 or 2 (patients) ([5]; Total (n = 21)): 0
- Abdominal pain, drug-related, Grade 3 (patients) ([5]; Total (n = 21)): 1 (4.8%)
- Anorexia, drug-related, Grade 1 or 2 (patients) ([5]; Total (n = 21)): 2
- Anorexia, drug-related, Grade 3 (patients) ([5]; Total (n = 21)): 0
- Any adverse event, drug-related, Grade 3 (patients) ([5]; Total (n = 21)): 2 (9.5%)
- Diarrhoea, drug-related, Grade 1 or 2 (patients) ([5]; Total (n = 21)): 1
- Diarrhoea, drug-related, Grade 3 (patients) ([5]; Total (n = 21)): 0
- Dysgeusia, drug-related, Grade 1 or 2 (patients) ([5]; Total (n = 21)): 1
- Dysgeusia, drug-related, Grade 3 (patients) ([5]; Total (n = 21)): 0
- Fatigue, drug-related, Grade 1 or 2 (patients) ([5]; Total (n = 21)): 7
- Fatigue, drug-related, Grade 3 (patients) ([5]; Total (n = 21)): 0
- Flushing, drug-related, Grade 1 or 2 (patients) ([5]; Total (n = 21)): 1
- Flushing, drug-related, Grade 3 (patients) ([5]; Total (n = 21)): 0
- Gastroesophageal reflux disease (GERD), drug-related, Grade 1 or 2 (patients) ([5]; Total (n = 21)): 1
- Gastroesophageal reflux disease (GERD), drug-related, Grade 3 (patients) ([5]; Total (n = 21)): 0
- Hypoalbuminaemia, drug-related, Grade 1 or 2 (patients) ([5]; Total (n = 21)): 2
- Hypoalbuminaemia, drug-related, Grade 3 (patients) ([5]; Total (n = 21)): 0
- Muscle spasms, drug-related, Grade 1 or 2 (patients) ([5]; Total (n = 21)): 1
- Muscle spasms, drug-related, Grade 3 (patients) ([5]; Total (n = 21)): 0
- Mydriasis, drug-related, Grade 1 or 2 (patients) ([5]; Total (n = 21)): 1
- Mydriasis, drug-related, Grade 3 (patients) ([5]; Total (n = 21)): 0
- Nausea, drug-related, Grade 1 or 2 (patients) ([5]; Total (n = 21)): 3
- Nausea, drug-related, Grade 3 (patients) ([5]; Total (n = 21)): 0
- Oedema peripheral, drug-related, Grade 1 or 2 (patients) ([5]; Total (n = 21)): 2
- Oedema peripheral, drug-related, Grade 3 (patients) ([5]; Total (n = 21)): 0
- Oral candidiasis, drug-related, Grade 1 or 2 (patients) ([5]; Total (n = 21)): 1
- Oral candidiasis, drug-related, Grade 3 (patients) ([5]; Total (n = 21)): 0
- Paraesthesia oral, drug-related, Grade 1 or 2 (patients) ([5]; Total (n = 21)): 1
- Paraesthesia oral, drug-related, Grade 3 (patients) ([5]; Total (n = 21)): 0
- Pyrexia, drug-related, Grade 1 or 2 (patients) ([5]; Total (n = 21)): 0
- Rash, drug-related, Grade 1 or 2 (patients) ([5]; Total (n = 21)): 1
- Rash, drug-related, Grade 3 (patients) ([5]; Total (n = 21)): 0
- Swelling face, drug-related, Grade 1 or 2 (patients) ([5]; Total (n = 21)): 1
- Swelling face, drug-related, Grade 3 (patients) ([5]; Total (n = 21)): 0
- Vomiting, drug-related, Grade 1 or 2 (patients) ([5]; Total (n = 21)): 3
- Vomiting, drug-related, Grade 3 (patients) ([5]; Total (n = 21)): 0
- Pyrexia, drug-related, Grade 3 (patients) ([5]; Total (n = 21), Dose Limiting Toxicity (DLT)): 1 (4.8%)
- Dose limiting toxicity (DLT) ([5]; at 4 mg/kg, doses up to 30 mg/kg): A single dose limiting toxicity (DLT) of Grade 3 pyrexia
- Grade 3 toxicity of abdominal pain ([5]; at 20 mg/kg): One
- Most commonly reported adverse event ([5]; dose-escalation): fatigue (Grade 1, 2)
- Drug-related Grade 4 toxicities ([5]; dose-escalation, 1-30 mg/kg): No drug-related Grade 4 toxicities
- Safety and tolerability as a single agent ([5]; doses up to 30 mg/kg, every 3 weeks): safe and generally well tolerated
- Change in serum HGF expression, two patients with highest baseline HGF (HGF; 24 h post drug treatment): significant decrease; also recorded: significantly decreased
- Change in serum HGF expression with MetMAb treatment, in general (HGF; Phase I patients): little or no increase
- Decrease of serum HGF levels post drug treatment, patient 11009 (HGF; remained low for the duration of the study): 70%
